Source: US20080254032A1 (published 2008)
Where two headings read alike, the source gives them in different places.

T1: human M-CSF (human, UniProt P09603 33-190)
T1 chain: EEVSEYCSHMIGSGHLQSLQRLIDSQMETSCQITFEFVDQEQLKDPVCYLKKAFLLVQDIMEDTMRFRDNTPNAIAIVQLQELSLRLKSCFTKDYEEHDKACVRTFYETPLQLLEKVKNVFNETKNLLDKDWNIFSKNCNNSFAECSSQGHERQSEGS


Columns and labels:
[1] = target: T1, human M-CSF; test: SPR, BIACORE 3000, 25 C, M-CSF amine-coupled on CM5 chip, antibody injected, 1:1 global fit
[2] = target: T1, human M-CSF; test: receptor binding inhibition: antibody titrated against 125I-M-CSF binding to c-fms on cells (NIH-3T3/human c-fms or M-NSF-60)
[3] = target: T1, human M-CSF; test: cell-based or functional assay
[4] = target: T1, human M-CSF; test: SPR, BIACORE 3000, 25 C, M-CSF amine-coupled on B1 chip, antibody injected, 1:1 global fit
[5] = target: T1, human M-CSF; test: receptor binding inhibition: antibody titrated against 125I-M-CSF binding to c-fms on cells (NIH-3T3/human c-fms or M-NSF-60)
[6] = target: T1, human M-CSF; test: cell-based or functional assay

Row | Kd [1] | koff [1] | IC50 [2] | Human Whole Blood Monocyte Activation Assay [IC50, M] [3] | M-CSF Mouse Monocytic Cell Proliferation Assay [IC50, M] [3] | Kd [4] | IC50 [5] | Human Whole Blood Monocyte Activation Assay [IC50, M] [6] | M-CSF Mouse Monocytic Cell Proliferation Assay [IC50, M] [6] | Binder
1 | 0.02 nM | 1.7e-05 s⁻¹ | 1.25 nM | 1.53e-10 M | 7.44e-10 M |  |  |  |  | monoclonal antibody 100 (antibody, human IgG2, kappa, V domains shown) VH: EVQLLESGGGLVQPGGSLRLSCAASGFTFSSYAMSWVRQAPGKGLEWVSAISGRGGRTYFADSVKGRFTISRDNSKNTLYLQMNSLRAEDTAVYFCAVEGYSGRYGFFDYWGQGTLVTVSS VL: EIVMTQSPATLSVSPGERATLSCRASQSVSSNLAWYQQKPGQAPRLLIYGASTRASGIPDRISGSGSGTEFTLIISSLQSEDFAVYYCQQSNNWPFTFGPGTKVDIKR
2 |  |  | 0.157 nM | 8.85e-10 M | 1.99e-10 M | 5.4 nM |  |  |  | monoclonal antibody 1.120.1 (antibody, human IgG2, kappa, V domains shown) VH: QVQLVQSGAEVKKPGASVKVSCKASGYTFTSYGISWVRQAPGQGLEWMGWISAYNGNTNYAQKLQDRVTMTTDTSTTTAYMELRSLRSDDTAVYYCARRAYGANFFDYWGQGTLVTVSS VL: not shown
3 | 0.0133 nM | 1.03e-06 s⁻¹ | 0.747 nM | 8.67e-10 M | 1.86e-10 M |  |  |  |  | monoclonal antibody 252 (antibody, human IgG2, kappa, V domains shown) VH: QVQLVESGGGLVKPGGSLRLSCAASGFTFSDYYMSWIRQAPGKGLEWISYISGSGSTIYYADSVKGRFTISRDNAKNSLYLQMNSLRAEDTAVYHCARALGGMDVWGQGTTVTVSS VL: DIQMTQSPSSLSASVGDRVTITCRASQSISGFLNWYQQKPGKAPKLLIYATSSLQSGVPFRFSGSGSGTDFTLTISSLQPEDFATYYCQQSYSVPFTFGPGTKVDIKR
4 |  |  |  |  |  |  | 0.529 nM | 1.12e-09 M | 7.37e-10 M | monoclonal antibody 9.7.2IF (antibody, human IgG2, kappa, V domains shown) VH: QVQLVESGGGLVKPGGSLRLSCAASGFTFSDYYMSWIRQAPGKGLEWVSYISSSGSTIYYADSVKGRFTISRDNAKNSLYLQMNSLRAEDTAVYYCARRIGGMDVWGQGTTVTVSS VL: DIQMTQSPSSLSASVGDRVTITCRASQSISGFLIWYQQRPGKAPKLLIYATSSLQSGVPSRFSGSGSGTDFTLTISSLQPEDFATYYCQQSYSTPFTFGPGTKVDIKR
5 |  |  |  |  |  |  | 0.006 nM | 1.98e-10 M | 7.37e-10 M | monoclonal antibody 9.7.2 (antibody, human IgG4, kappa, V domains shown) VH: QVQLVESGGGLVKPGGSLRLSCAASGFTFSDYYMSWIRQAPGKGLEWVSYISSSGSTIYYADSVKGRFTISRDNAKNSLYLQMNSLRAEDTAVYYCARRIGGMDVWGQGTTVTVSS VL: DIQMTQSPSSLSASVGDRVTITCRASQSISGFLIWYQQRPGKAPKLLIYATSSLQSGVPLRFSGSESGTDFTLTISSLQPEDFATYYCQQSYSTPFTFGPGTKVDIKR
6 | 1.33 nM | 7.3e-05 s⁻¹ | 0.445 nM | 5.8e-10 M | 2.31e-10 M |  |  |  |  | monoclonal antibody 88 (antibody, human IgG2, kappa, V domains shown) VH: EVQLVESGGGLVQPGGSLRLSCAASGFTFSSYWMSWVRQAPGKGLEWVANIKQDGSEKYYVDSVKGRFTISRDNAKNSLYLQMNSLRAEDTAVYYCAPGIAAAGRAYWGQGTLVTVSS VL: DIQMTQSPSSLSASVGDRVTITCRPSQDISSYLNWYQQKPGKAPKLLIYAASSLQSGVPLRFSGSGSGTDFTLTISSLQPEDFATYYCQQSYSTPFTFGPGTKVDIKR
7 |  |  | 0.308 nM | 7.15e-10 M | 1.96e-10 M | 4.7 nM |  |  |  | monoclonal antibody 2.7.3 (antibody, human IgG4, kappa, V domains shown) VH: QVQLVESGGGVVQPGRSLRLSCAASGFTFSSYGMHWVRQAPGKGLEWVAFIWYDGSNKYYADSVKGRFTISRDNSKNTLYLQMNSLRAEDTAVYYCARGYRVYFDYWGQGTLVTVSS VL: DIQMTQSPSSVSASVGDRVTITCRASQDISSWLAWYQRKPGKAPKLQIYAASSLESGVPSRFNGSGSGTDFTLSISSLQPEDFATYYCQQTNSFPLTFGGGTKVEIKR
8 |  |  |  |  |  |  | 1.5 nM | 2.8e-10 M | 4.13e-10 M | monoclonal antibody 8.10.3 (antibody, human IgG2, kappa, V domains shown, Human antibody from hybridoma 8.10.3) VH: EVQLVESGGGLVQPGGSLRLSCAASGFTFSSFSMTWVRQAPGKGLEWVSYISSRSSTISYADSVKGRFTISRDNAKNSLYLQMNSLRDEDTAVYYCARDPLLAGATFFDYWGQGTLVTVSS VL: not shown
9 |  |  |  |  |  |  | 0.297 nM | 2.49e-10 M | 2.02e-10 M | monoclonal antibody 9.14.4I (antibody, human IgG2, kappa) heavy: QVQLVESGGGLVKPGGSLRLSCAASGFTFSDYYMSWIRQAPGKGLEWVSYISSSGSTIYYADSVKGRFTISRDNAKNSLYLQMNSLRAEDTAVYYCARGLTGDYWGQGTLVTVSSASTKGPSVFPLAPCSRSTSESTAALGCLVKDYFPEPVTVSWNSGALTSGVHTFPAVLQSSGLYSLSSVVTVPSSNFGTQTYTCNVDHKPSNTKVDKTVERKCCVECPPCPAPPVAGPSVFLFPPKPKDTLMISRTPEVTCVVVDVSHEDPEVQFNWYVDGVEVHNAKTKPREEQFNSTFRVVSVLTVVHQDWLNGKEYKCKVSNKGLPAPIEKTISKTKGQPREPQVYTLPPSREEMTKNQVSLTCLVKGFYPSDIAVEWESNGQPENNYKTTPPMLDSDGSFFLYSKLTVDKSRWQQGNVFSCSVMHEALHNHYTQKSLSLSPGK light: not shown
10 |  |  | 0.07 nM | 8.6e-11 M | 7.3e-11 M | 0.4 nM |  |  |  | monoclonal antibody 3.8.3 (antibody, human IgG2, kappa, V domains shown) VH: QVQLVESGGGLVKPGGSLRLSCAASGFTFSDYYMSWIRQAPGKGLEWFSYISSSGSTIYYADSVKGRFTISRDNAKNSLSLQMNSLRAEDTAVYYCARGLTGDYWGQGTLVTVSS VL: DIQMTQSPSSVSASVGDRVTISCRASQDISGWLAWYQQKPGKAPKLLISATSSLHSGVPSRFSGSGSGTDFTLTISSLQPEDFATYYCQQTNSFPFTFGPGTKVDIKR
11 |  |  |  |  |  |  | 0.041 nM | 6.48e-10 M | 2.02e-10 M | monoclonal antibody 9.14.4 (antibody, human IgG4, kappa) heavy: QVQLVESGGGLVKPGGSLRLSCAASGFTFSDYYMSWIRQAPGKGLEWVSYISSSGSTIYYADSVKGRFTISRDNAKNSLYLQMNSLRAEDTAVYYCARGLTGDYWGQGTLVTVSSASTKGPSVFPLAPCSRSTSESTAALGCLVKDYFPEPVTVSWNSGALTSGVHTFPAVLQSSGLYSLSSVVTVPSSSLGTKTYTCNVDHKPSNTKVDKRVESKYGPPCPSCPAPEFLGGPSVFLFPPKPKDTLMISRTPEVTCVVVDVSQEDPEVQFNWYVDGVEVHNAKTKPREEQFNSTYRVVSVLTVLHQDWLNGKEYKCKVSNKGLPSSIEKTISKAKGQPREPQVYTLPPSQEEMTKNQVSLTCLVKGFYPSDIAVEWESNGQPENNYKTTPPVLDSDGSFFLYSRLTVDKSRWQEGNVFSCSVMHEALHNHYTQKSLSLSPGK light: not shown
